7 molecules from US20040024178A1, “Bacterial signal peptidase inhibitors and uses thereof” (priority 1999, published 2004) can be followed below.

Data set [1] addresses T1, S. aureus SpsB signal peptidase (Staphylococcus aureus) (UniProt P0A070).
T1 sequence: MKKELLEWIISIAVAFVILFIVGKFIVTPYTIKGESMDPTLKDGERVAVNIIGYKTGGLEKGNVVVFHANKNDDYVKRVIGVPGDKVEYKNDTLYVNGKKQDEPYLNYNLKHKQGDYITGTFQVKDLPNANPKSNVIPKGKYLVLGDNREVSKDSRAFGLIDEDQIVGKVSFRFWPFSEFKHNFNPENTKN
The experiment in a line: cell-based or functional assay.

In data set [2] the target is T2, Decanoyl-Lys(Flu)-Thr-Pro-Thr-Ala-Lys-Ala-Ala-Ser-Lys-Lys(TAMRA)-Asp-Asp-OH, prep-hplc peak 23C.
T2 chain: KTPTAKAASKKDD

Data set [3] concerns the target T3, Decanoyl-Leu-Thr-Pro-Lys(Bio-X)-Ala-Lys-Ala-Ala-Ser-Lys-Ile-Asp-Asp-Gly-Lys(Flu)-Asp-OH.
T3 chain: LTPKAKAASKIDDGKD

In data set [4] the target is T4, Decanoyl-Lys(TAMRA)-Thr-Pro-Thr-Ala-Lys-Ala-Ala-Ser-Lys-Lys(Flu)-Asp-Asp-OH, prep-hplc peak 24C.
T4 chain: KTPTAKAASKKDD

Data set [5] deals with T5, Decanoyl-Lys(Flu)-Thr-Pro-Thr-Ala-Lys-Ala-Ala-Ser-Lys-Lys(Bio-X)-Asp-Asp-OH.
T5 chain: KTPTAKAASKKDD

In data set [6] the target is T6, Decanoyl-Lys(Bio-X)-Thr-Pro-Thr-Ala-Lys-Ala-Ala-Ser-Lys-Ile-Asp-Asp-Gly-Lys(Flu)-Asp-OH.
T6 chain: KTPTAKAASKIDDGKD

In data set [7] the target is T7, Decanoyl-Leu-Thr-Pro-Lys(Bio-X)-Ala-Lys-Ala-Ala-Ser-Lys-Lys(Flu)-Asp-Asp-OH.
T7 chain: LTPKAKAASKKDD

In data set [8] the target is T8, Decanoyl-Lys(TAMRA)-Thr-Pro-Thr-Ala-Lys-Ala-Ala-Ser-Lys-Lys(Flu)-Asp-Asp-OH, prep-hplc peak 24D.
T8 chain: KTPTAKAASKKDD

Bounds are passed on as bounds.

“Decanoyl-Lys(TAMRA)-Thr-Pro-Thr-Ala-Lys-Ala-Ala-Ser-Lys-Lys(Flu)-Asp-Asp-OH, prep-hplc peak 24D (peptide)” showed a signal change (fluorescence quench assay) in data set [1] of over 10 fold.

On to “Decanoyl-Leu-Thr-Pro-Lys(Bio-X)-Ala-Lys-Ala-Ala-Ser-Lys-Ile-Asp-Asp-Gly-Lys(Flu)-Asp-OH (peptide)”, for which, in data set [1], the signal change (fluorescence polarisation assay, developed with avidin) was over 150 mP.

“Decanoyl-Lys(Flu)-Thr-Pro-Thr-Ala-Lys-Ala-Ala-Ser-Lys-Lys(Bio-X)-Asp-Asp-OH (peptide)” gave a signal change (fluorescence polarisation assay, developed with avidin) in data set [1] of over 150 mP.

As for “Decanoyl-Leu-Thr-Pro-Lys(Bio-X)-Ala-Lys-Ala-Ala-Ser-Lys-Lys(Flu)-Asp-Asp-OH (peptide)”, the signal change (fluorescence polarisation assay, developed with avidin) in data set [1] is over 150 mP.

Turning to “Decanoyl-Lys(Bio-X)-Thr-Pro-Thr-Ala-Lys-Ala-Ala-Ser-Lys-Ile-Asp-Asp-Gly-Lys(Flu)-Asp-OH (peptide)”, in data set [1], the signal change (fluorescence polarisation assay, developed with avidin) is over 150 mP.

Molecule “Decanoyl-Lys(TAMRA)-Thr-Pro-Thr-Ala-Lys-Ala-Ala-Ser-Lys-Lys(Flu)-Asp-Asp-OH, prep-hplc peak 24C (peptide)” displayed a signal change (fluorescence quench assay) in data set [1] of over 10 fold.

B1: S. aureus SpsB signal peptidase (protein)
chain: MKKELLEWIISIAVAFVILFIVGKFIVTPYTIKGESMDPTLKDGERVAVNIIGYKTGGLEKGNVVVFHANKNDDYVKRVIGVPGDKVEYKNDTLYVNGKKQDEPYLNYNLKHKQGDYITGTFQVKDLPNANPKSNVIPKGKYLVLGDNREVSKDSRAFGLIDEDQIVGKVSFRFWPFSEFKHNFNPENTKN
Consider B1, for which the “catalytic efficiency kcat/Km (fluorescence quench assay)” value in data set [2], in data set [4] and in data set [8] was “kcat/Km >/=5000 M^-1 sec^-1” each time. Besides, the “catalytic efficiency kcat/Km (fluorescence polarisation assay)” value in data set [3], in data set [5], in data set [6] and in data set [7] was “kcat/Km >/=8000 M^-1 sec^-1” each time. Moreover, the “kcat/Km (fluorescence correlation spectroscopy assay)” value in data set [7] is listed as “kcat/Km=6800 M^-1s^-1”.
